Results on 1 substance are retold here after patent publication US20210371505A1.

Holding throughout (test): cell-based or functional assay
Experiment [1] concerns the target Hemagglutinin of influenza virus A/Philippines/01/1982 (H3N2) (Influenza A virus A/Philippines/01/1982 (H3N2)).
The target of experiment [2] is Hemagglutinin of influenza virus A/Aichi/02/1968-PR8-X31 (H3N2) (Influenza A virus A/Aichi/02/1968-PR8-X31 (H3N2)) (UniProt P03437).
In experiment [3] the target is Hemagglutinin of influenza virus A/Shanghai/01/2013-PR8 (H7N9) (Influenza A virus A/Shanghai/01/2013-PR8 (H7N9)).

On to “Irrelevant/negative hIgG1 control (antibody)”, for which the IC50 of neutralization, cell viability microneutralization assay on MDCK cells in experiment [1] was greater than 3.33 µM; in experiment [2] it was greater than 0.833 µM; in experiment [3], greater than 6.67 µM.
